Measurements from article PMC5397172.

Key:
Experiment in all cases: EMSA
[1] = molecular target: HA-p65;Flag-p50 (human?;human?, UniProt Q04206;P19838 1-551;1-433, |)
[2] = molecular target: Flag-p50 (homodimer) (UniProt P19838 1-433)
[3] = molecular target: Flag-p65 (homodimer) (UniProt Q04206 1-551)

Measured: binding result

Flag-p50 (homodimer), sequence (P19838 1-433): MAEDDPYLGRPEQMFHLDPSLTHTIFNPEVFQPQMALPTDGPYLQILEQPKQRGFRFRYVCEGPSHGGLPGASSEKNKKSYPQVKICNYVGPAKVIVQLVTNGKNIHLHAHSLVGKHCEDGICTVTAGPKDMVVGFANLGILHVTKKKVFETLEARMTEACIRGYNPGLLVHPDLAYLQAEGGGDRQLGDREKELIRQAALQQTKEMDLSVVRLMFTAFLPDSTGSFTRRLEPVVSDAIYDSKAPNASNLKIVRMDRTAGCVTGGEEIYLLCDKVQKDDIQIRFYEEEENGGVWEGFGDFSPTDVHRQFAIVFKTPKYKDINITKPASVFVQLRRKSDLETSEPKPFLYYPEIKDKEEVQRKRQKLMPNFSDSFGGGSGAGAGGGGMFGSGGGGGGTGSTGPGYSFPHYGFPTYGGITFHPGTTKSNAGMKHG
HA-p65;Flag-p50, sequence (Q04206 whole entry, chain 1 of 2): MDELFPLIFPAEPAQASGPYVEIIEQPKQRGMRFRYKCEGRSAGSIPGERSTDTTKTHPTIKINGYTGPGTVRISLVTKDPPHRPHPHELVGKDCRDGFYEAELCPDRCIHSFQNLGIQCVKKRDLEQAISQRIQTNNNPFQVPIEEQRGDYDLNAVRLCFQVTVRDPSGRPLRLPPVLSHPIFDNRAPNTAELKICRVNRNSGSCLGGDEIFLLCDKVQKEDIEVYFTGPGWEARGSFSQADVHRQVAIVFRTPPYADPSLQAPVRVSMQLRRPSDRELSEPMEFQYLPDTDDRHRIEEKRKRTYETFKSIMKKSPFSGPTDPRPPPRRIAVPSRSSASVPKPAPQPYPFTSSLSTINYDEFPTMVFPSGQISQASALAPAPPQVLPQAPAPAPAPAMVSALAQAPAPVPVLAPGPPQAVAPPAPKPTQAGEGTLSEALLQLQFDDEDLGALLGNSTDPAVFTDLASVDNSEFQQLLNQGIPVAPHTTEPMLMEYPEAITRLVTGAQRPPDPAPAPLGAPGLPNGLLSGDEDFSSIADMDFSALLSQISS
HA-p65;Flag-p50, sequence (P19838 1-433, chain 2 of 2): as the sequence (P19838 1-433) above
Flag-p65 (homodimer), sequence (Q04206 whole entry): as the sequence (Q04206 whole entry, chain 1 of 2) above

B1: Ig kappaB mutant (dsDNA)
DNA 1: AGTTGAATCCACTTTCCCAGG
DNA 2: CCTGGGAAAGTGGATTCAACT
no binding: all assays above
